Measured values as given in article PMC7591920 (2020).
Bridge positions count the residues as written; N and C are the ends. Ends that are not written are not given here.

Key:
GST-hTEAD1(209–426) = target: T1, GST-hTEAD1(209–426) (human, UniProt P28347 209-426); test: SPR
T1 chain: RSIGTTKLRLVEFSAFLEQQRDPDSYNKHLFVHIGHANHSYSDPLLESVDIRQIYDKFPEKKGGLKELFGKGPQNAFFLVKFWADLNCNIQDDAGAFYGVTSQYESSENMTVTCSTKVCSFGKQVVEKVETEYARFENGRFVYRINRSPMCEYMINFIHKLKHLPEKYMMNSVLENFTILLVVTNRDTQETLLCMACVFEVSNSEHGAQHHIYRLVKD

[1] = target: T2, mouse TEAD4(210–427), as purified (SPR) (mouse, UniProt Q62296 210-427); test: SPR
T2 chain: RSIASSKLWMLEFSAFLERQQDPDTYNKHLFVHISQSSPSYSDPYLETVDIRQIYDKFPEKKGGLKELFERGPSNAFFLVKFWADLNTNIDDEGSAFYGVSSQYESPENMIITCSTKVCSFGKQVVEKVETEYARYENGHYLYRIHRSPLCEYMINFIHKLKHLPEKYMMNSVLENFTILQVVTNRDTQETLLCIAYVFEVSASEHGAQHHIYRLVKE

SVDDHFAKALGDTWLQIKAA (lactam 3-18) [macrocyclic two-helix motif peptide 4C (lactam 235–250, seven-atom crosslink)]
Kd (GST-hTEAD1(209–426)): 4.8 µM | Kd [1]: 3.2 µM

B1: macrocyclic two-helix motif peptide 4A (lactam 235–250, 5 crosslinking atoms) (peptide)
chain: SVDDHFAKALGDTWLQIKAA
modifications: lactam (positions not given here); not fully specified (bridges); also: lactam crosslink of 5 atoms, residue identities at the bridge ends not given here
Kd (GST-hTEAD1(209–426)): 15 µM | Kd [1]: 11 µM

B2: macrocyclic two-helix motif peptide 4B (lactam 235–250, 6 crosslinking atoms) (peptide)
chain: SVDDHFAKALGDTWLQIKAA
modifications: lactam (positions not given here); not fully specified (bridges); also: lactam crosslink of 6 atoms, residue identities at the bridge ends not given here
Kd (GST-hTEAD1(209–426)): 14 µM | Kd [1]: 11 µM

SVEDHFAKALGDTWLQIKAA (lactam (positions not given here); not fully specified (bridges)) [macrocyclic two-helix motif peptide 4D (lactam 235–250, seven-atom crosslink)]
Kd (GST-hTEAD1(209–426)): 1.5 µM | Kd [1]: 1 µM
